Reference: the DeepSol protein solubility set

Experiment: soluble on expression in E. coli; label from the status in PepcDB or PDB records

Sequence | soluble on expression in E. coli
LKISTKGRYGLEAIVDLAIHSSEGRVSLKSIAERCGMSEAYILQIFLILRRAGIVESIRGAQGGYVLARDPSQITVGEILTVLEGPLAPVPCIAEKTKRSKSSCERYENCTARSFWEKIMNTLNDVANSITVEDLVKCYNSTVSQNTELEYYI | soluble
METLTLETPEARAETRTVLHVGCGAANPAKLPGDVFPAGDWRELRLDIDPGVAPDILASITGMPMVADGSVDAVWSSHNLEHLRPHEVPLALAEFHRVLRPGGFLLATLPDLQAVALLVAQGLLEEPAYVSALGPIAPLDILYGFRPAIAEGNDFMAHRTGFTAASLARHLGAAGFAEITVQTDGRFALWARAVRPA | not soluble
SDLDYGGVPLWINRFLGEPSVLTLKDRIDPGWYRAVNTQSCPLECDCPIQWPTAIYCDHRGLNQLPSGLPFRLQYLFLQGNNITSLGSRAFDNTTYLRWLILDHNELLSEQLDNVLFSSLTRLVNLFINHNNLTKVPAGLPSGLKQLRLAYNHIEKISEGDFQNLDSLTLILLQGNRLKTIEEGDFKGLGALNLLDLSHNFLDTFPKHLPPSVQQLYLSNNSLTGLSENSLHAFSGLRYLRLGHNKLRNERLDPGAFNLTSLVELDLSYNRLTEIPSVPITLQYLYLEVNHIQEFNVSSFCRTVGPTSYSRMKILRLDGNKLEYHKLPPDWVFCLRVLHNIYI | soluble
MMSGQGKRLMVMAGGTGGHVFPGLAVAHHLMAQGWQVRWLGTADRMEADLVPKHGIEIDFIRISGLRGKGIKALIAAPLRIFNAWRQARAIMKAYKPDVVLGMGGYVSGPGGLAAWSLGIPVVLHEQNGIAGLTNKWLAKIATKVMQAFPGAFPNAEVVGNPVRTDVLALPLPQQRLAGREGPVRVLVVGGSQGARILNQTMPQVAAKLGDSVTIWHQSGKGSQQSVEQAYAEAGQPQHKVTEFIDDMAAAYAWADVVVCRSGALTVSEIAAAGLPALFVPFQHKDRQQYWNALPLEKAGAAKIIEQPQLSVDAVANTLAGWSRETLLTMAERARAASIPDATERVANEVSRVARALEHHHHHH | soluble
MVVNYPRAYTAEQSRPINLVGKQGQAVQISIHYPSQYICANRERILPDWQEQALFWVVIVLQQSKYPLVKSTAEIEREKEHLREKFMRFGCDLAFELRDRGYLADLIDPRTGYPMLSRPGVIPHNDTAVVKALLNYPVLKNKCSVIVHPHWGTAVYPSIFLSAALEHHHHHH | not soluble
MGSDKIHHHHHHMRYRKLSDYLKERYGERVQRIVIHGGFSCPNRDGTKGKGGCIYCDATGSGFTTLMRLPIREQVMEMKKKYEKRGIKKFIAYFQSFSNTYAPVEMLRERYEEALVDDSIVQLSVSTRPDLVPERVLDLFEEFKKRVDVSVELGLQTANYRTLKKINRGHTLAEFVDAAVRVKKRGIELVVHVILNLPWDDMEDVVETAKILSALDVDGVKLHSLYVVEGTKLAEMYKKGEVKICSLEEYIDRAITFLEYLSPNVVIHRLVADPPRKGTIFGNWGKSKIEIINMIEEELERRDTYQGKKFDYLNR | not soluble
MGSSHHHHHHSSGLVPRGSHADYEVVHDTFEVNFDGWCNLGVDTYLTAVENEGNNGTRGMMVINRSSASDGAYSEKGFYLDGGVEYKYSVFVKHNGTGTETFKLSVSYLDSETEEENKEVIATKDVVAGEWTEISAKYKAPKTAVNITLSITTDSTVDFIFDDVTITRKGMAEANTVYAANAVLKDMYANYFRVGSVLNSGTVNNSSIKALILREFNSITCENEMKPDATLVQSGSTNTNIRVSLNRAASILNFCAQNNIAVRGHTLVWHSQTPQWFFKDNFQDNGNWVSQSVMDQRLESYIKNMFAEIQRQYPSLNLYAYDVVNAAVSDDANRTRYYGGAREPGYGNGRSPWVQIYGDNKFIEKAFTYARKYAPANCKLYYNDYNEYWDHKRDCIASICANLYNKGLLDGVGMQSHINADMNGFSGIQNYKAALQKYINIGCDVQITELDISTENGKFSLQQQADKYKAVFQAAVDINRTSSKGKVTAVCVWGPNDANTWLGSQNAPLLFNANNQPKPAYNAVASIIPQSEWGDGNNPA | soluble
MTDICMLKTMDSRNTNEAKQEPKTMVWWDINSCPVPDGYDARMVAHSIESELKKAGYPGPLTITAIGYLNTPLMCM | not soluble
MTQTVKLDILSDPICPWCYIGKTQLDKALAAIPDHPFVIEWHPFQLNPDMAPEGMDRREYLERKFGGKEGAVRAYAPVVEHAEKAGLAIDFEAMQRTPNTLDAHRLIHWAGVEGKQTEAVDALFAAYFTEGRDIGDAEVLADIADSIGMDAAVVLKLLKSDADRDDIAKRDSHSREMGVSSVPTFIVANQHAVPGAQPPELWEQVIREIMSQIETTSA | not soluble
MNNWREIAVRPDESIRETLEVIDEGAVQIAIVADGHDHLQGIVTDGDIRRGILKDLDLGAPVASVMNEDPITARPQEDRQSLIDTMRARRIHQIPLVDNEGRVVGIEVLDDLLEPEARPNPVVLMAGGLGTRLRPLTDDCPKPLLEVGDKPILETILEGFIAHGFHRFYLSVNYKAGMIEDYFRDGSNWGVDISYVHEEKRLGTAGPLSLLPERPDETMIVMNGDLLTKLNFTHLLDFHREHGAVATMCVREHETQVPYGVIETDDQSMEGIEEKPTERYFVNAGIYVLEPETLGYVPENEFFDMPDLFKRLIDEGKEATVFPVREYWQDVGRKEDFHRVNGEYEEVFDTLEHHHHHH | soluble
MGHHHHHHSHMDRWSAGTLENSILNAYLHTIRGSQHFLYIENQFFISCSDGRTVLNKVGDEIVDRILKAHKQGWCYRVYVLLPLLPGFEGDISTGGGNSIQAILHFTYRTLCRGEYSILHRLKAAMGTAWRDYISICGLRTHGE | soluble
SNAGMKAADFTYVTVHGDNSRMSRLKAQYTMLFFYDPDCSNCRKFEKLFAEIPAFVEMVENGTLRVLAIYPDENREEWATKAVYMPQGWIVGWNKAGDIRTRQLYDIRATPTIYLLDGRKRVILKDTSMEQLIDYLATQAGK | soluble
MGSDKIHHHHHHMNAPDTSLAGASTASTASYDSAADGYNFAYLDEQTKRMLRRALLKAVAVPGYQVPFASREMPLPFGWGTGGIQVTAAIIGRKDTLKVIDQGSDETTNAVNIRRFFARTTGVATTRRTVDATIIQTRHRIPETPLTERQILVYQVPMPEPLFRLEPRVAECRKLHALADYGLISVKLYEDIVHHGSIATTYDYPVIVNHRYLASPSPIPKFDNPKMHMNPALQLFGAGRERRIHAIPPYTPVRSLDFDDHPFEVQKWHHACALCGSTESFLDEMIVDDAGKRMFVCSDSDYCHERRGDADFDPPSRDAGKGEPA | not soluble
MPPPTASTPDDSADPGPDFADVPPTDLVKVGFIFRPHGLDGELKIDPSATDDPARFEVLPTVFVGPHPRRVVRHDIASVRYQKTKRGITVILGLDGIVDRDDAEAVAKMDVFATEAALGLEDDELFADDLVGWTVVTEEGAVQGTVADFMEMPAQDLFVVRTPEDTEAMIPAIDDFIIEIDEEAERIVVRPIDGLMDALEHHHHHH | not soluble
MGSDKIHHHHHHMRDNMSRLEDLEAFIHIAESGSLTRAATRLNRSLQAVSRSLTSLEVDVGLQLVHRTTRHSALSEAGQAFYRRVKPAVLEIREAQLEAAGRRTGPSGILRVGAPMLFGPDFLVPIVAEYIESYPQAEVDLSLTDAFVDLASKGIDVVVRIADLPDSNLQSKRLGALRRVVFGAPSYFARNGRPEHPAELRQHACIVRTIGNRPGQWAFQIDGKRRMVGVRGSFRSNAMAAIYSAVRSGLGLGYSPLWQIRHLVDAGQVEIVLQEFEPKPVPIHALWQESTRPPAKVRAFVDLLAMRLRLDDL | not soluble
MSLRIKVCGIKRVEDAVMAAYCGADAIGLVVGRKHNSDDFIDKHLAQKIVRECPPYISPVLVTELDDAEEISGLVHETGVTSVQLHSDCTVDSIISLRKTFPNIKIIKNFHVIGPGVIHAMKPFESVVDAFILDTLDLANDKVGSTGLVHDWSISRKIVKEVSRPVILAGGLTPENVGEAIRVVNPYGVDASSGLKDSNGFKDEMKVINFVHRAKNDFFKVRNLSLENEGHHHHHH | soluble
MPNLLDDSFDPTFQSTSKKLVLPSIRKVQPEYDNLPEEQGVNDFSSDELMKLLSFMEGEVQAREDVIDHLKRERTKILLSEAKYGKLNMNDPFAALRRDSAITGEQIDEEKIVQMYESQVDQLDKMMAVQKQSQRNAAVLLVALEKKQYKLVKKLEADREAKIRYAKQGDDLVAHLEKERNQLQQQIEFHIEEKRKAEIAKDKMEMTLGNEKKRHESIVLYLIQERKQMLLKMHELRVKAEQIMLQNQNDPTKPGPSSALSERELIEELKKEVTFLRAERESLTKTQKMVKTENLSLRETVRGQEADLQMLRRNLTLTGAKMSIDKPGNVLPQLPPDTGSLIMANRGAKPAVNRQQPAPPPVARLPNSATFPTEKSRLPRAPPPAVTTPVPRMSIGSLPASSSNVPRTMSSPVKKTPVMGVSSTAVRRPQSAATTTMPTTSVITNTSAVMPLSPDLEQLEAAIQSMNVVTASPPAYSTAMAKRSSSLPREANNNPPGAPIRRSTMNGGMHTSTTGVVSTRIAGPSSNVASERKLSGTVKRNGILAKAFGSSK | not soluble
MVHPALEFSDCYSDSPDFRERLKCYENELEKTNKFLKDVIKDGNNVINTFKEYSLAVQKFSQTLQSFQFDFIGDTLTDDEMNIAESFREFAGLLQDVEEARMMLVQNASDLLIKPLEKFRKEQIGVTKERRKKFEKESEKYYSQLDKHVNLSSKKKETQLQEADEQLDKERQAFYESSVEYVYQIQQVQEKKKFDVVEPVLAFLQSILTLNNLTVEMYTFRNKGTKCNTGEIPFQKVQFCTIQVDISTFMVHFCTFKLYFCTFKIP | not soluble
MGSDKIHHHHHHMQPEFNRPEFLEGNSAEEIHERMMNNLPDDIDDMPGGFPYDMTMPAALEKDEIINFHIVRALMIAFPEYAWDEWLDLHGRQVHLTRHEAEPAFGYVKITAAEGTEILSGTVFCTAATETGPSIEYATTEDVVVGGEGSVLIPVSAVEAGTGSNVAANTVVLMMVPDKNVTEINNPEPIRGGTERETDDDFYDRIAAEYDNSMTYLGNDTDYKRWAKQAGAGDAIVISTWNGPGTVKLVLVDGNGKPANAKLVQDVYNYIVSPNDRSARLLPTGTAELTCAAATTVAVNYVIAGLSYDETTGIEQIKADFTEAVRAVYAQAKTEGVLRYNDVRPLISAIAGVEDFETFTMNGKMQNITLKSEEYPDTGTLNFS | not soluble
MEREQALWIVKQQLTEQRYEHTLGVVETAVKLAKQYGADAKKAELAAIFHDYAKFRPVEEMKQIILAQNMPNDLLAYNSELWHAPVGAYLVQTEVGIDDPEVLDAIRYHTSGRAGMTVLEKIIYLADYIEPGRRFPGVDDVRRLAEEDLNRALLQAVKNTIAFLLEKRQLIYPDTIHAYNSLMREVKGEAKR | not soluble
AITGATGHLGQQIVAAMRPLVATTELYLGVHTLSKAQVYQQQGLHIAAIDYQQPEQLRAFFQDSDVLIYIPSKSHDSYSRVQEFENVLAAVQQANVHHFLVMGFIADQVNNPFALSAFYGYVPRRLAGSDINYTIVRNALYADPLVPYLPELIERHNVVYPMADQALSFISQADSAAAFAKVATTPDLLQRGRI | not soluble
MSTNPSQLVAADRIGFARLTKRAFDGENLYPLWQELMSKTDAGTATAGEQLDLALITQLFGHKQAGLSVQTETLKQQQLFRSPCASDNPRLRVLALAADIDMGGNTPIEFLLQDSGIELQTLYVIDGVPLPDPLPAHDVAIVIASDSDECMSALAAIEARVANWPAPLLNPPHLIRHLDRDKLYRLIGDIEGLEIPDTISVGRDTLVAAANGSATLPEVTGGVDFPIIVRPRGSHAGFGLARITDSVALLDYLRDRQESDYFIARYVDYASDDGQFRKYRVVVVDGKPYACHMAIANRWDIWYLNAGMAEDEVKRLEEAAFFHTFDFGFALRHKTALDGMIERIGLDYFTIDCAQTPRGDLLVFEIDNTAVVHDMDSPELYPYKPPQMHKIFDAFASMLERRVASRLTSVAAAALEHHHHHH | soluble
